Experimental data published in publication PMC3315491.

Target: T1, EspR (UniProt P9WJB7)
T1 sequence: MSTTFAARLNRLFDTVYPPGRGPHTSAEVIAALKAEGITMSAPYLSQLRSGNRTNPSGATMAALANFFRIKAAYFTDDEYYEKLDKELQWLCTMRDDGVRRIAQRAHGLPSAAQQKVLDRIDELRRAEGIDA
Assay: EMSA

Sequence | binding
GCTCATCGATGTGACCTCCACCGGGCTCCAAGAGCAAACGGTTATCTGTATGTATTTGCTGATCATGGTAGCGACAGTTGTGTCCACAACCAAGTGCAAACCTGAGCGGATT (double strand) [espR peak a EMSA probe] | binds
GAAAACCGCCCCAGTTGCGGTGTGCGCTAGTTAACATCGCAACTACATATCAGCAAATCAGGGAGAGGAAACCGTGTCGTTTGTGTTGGTGTCTCCGTCGCA (double strand) [pe_pgrs19 peak probe] | binds
ACCTCAACGACAATTTGCCAGAGCTAGTCAGCGACATAGAAGACAAAACACTCCAATGGCATGATCGAGCTTAGCTATGCTCCGGATGTAGCTGGCCGAAGAT (double strand) [rv2929 peak probe] | binds
TGCGTCGGTTAGTCTCTTTTTCGACCTTGGGGCGCGGAGGGTCGTTATGGTGTGTCACAGTGCTTTGCTGTCAAAGGCATTGGCGGTGCCGACCAAGCGACACT (double strand) [rv1490 peak probe] | binds
TCAGGATGACCGTGTCGGGCGGATGCGGCCGACTCCGGGCAACCAGCAGCCAACGGAGATTCGCCGAGAGCCTCCTTTGCTGCCTGGGTCCGCACAGCGCTCGTCAGGCGA (double strand) [espR peak b EMSA probe] | binds
GCTTGTCCCAAAGCTCTTTCAGGCCGTTGAGCGCGTTTGTGATGAACTCCCACACTTCTCCGAGGGTGCCCTTGATGATGTCCGCCACATCCGAAATGAT (double strand) [espA ORF negative control probe] | no binding
ACTTGAGTTCTTCAGCAATGATGCATGCACGACTGTAGACCTGCGACCAAGTCAAGCTGTCAGCAAATCCCTTGGGGTCGGATCCGTAGTCGATGTACGTATATGCAGTGCTGTCAGGCT (double strand) [fadD26 peak probe] | binds more weakly
